Data published in the supplement of paper PMC7125110.
± gives the standard error. For some of these results: Fewer inactive variants are shown than the library holds.

B1: glmS ribozyme (parent)
chain: AUAAAAGCGCCAGAACUACAGAAAUGUAGUUGACGAGGAGGAGGUUUAUCGAAUUUUCGGCGGAUGCCUCCAAA

How the values were obtained:
Conditions in all cases: with glucosamine-6-phosphate
glucosamine-6-phosphate [1] = variants of: B1; assay: kcat; higher = faster cleavage; RNA array
In short: (§1)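 Glucosamine-6-phosphate (40 μM to 10 mM) in HEPES/KCl/Mg(OAc)2 buffer was flowed over sequenced MiSeq chips, and tiles were imaged over ~14 h. Barcoded ribozyme variants there had been transcribed in situ by E. coli RNA polymerase and were tracked through a hybridised Cy3 probe at 37 °C. One- or two-exponential decay fits to per-tile medians, normalised to baseline and to non-cleaving reference variants, gave kobs. kcat and KM came from weighted Michaelis–Menten fits across concentrations.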

glucosamine-6-phosphate [2] = variants of: B1; assay: KM; higher = weaker cofactor use; RNA array
In short: as §1

glucosamine-6-phosphate [3] = variants of: B1; assay: self-cleavage kobs at 640 uM GlcN6P; higher = faster cleavage; RNA array
In short: as §1

glucosamine-6-phosphate [4] = variants of: B1; assay: self-cleavage kobs at 2500 uM GlcN6P; higher = faster cleavage; RNA array
In short: as §1

glucosamine-6-phosphate [5] = variants of: B1; assay: self-cleavage kobs at 10000 uM GlcN6P; higher = faster cleavage; RNA array
In short: as §1

glucosamine-6-phosphate [6] = variants of: B1; assay: self-cleavage kobs at 40 uM GlcN6P; higher = faster cleavage; RNA array
In short: as §1

glucosamine-6-phosphate [7] = variants of: B1; assay: self-cleavage kobs at 160 uM GlcN6P; higher = faster cleavage; RNA array
In short: as §1

Row | Variant | kcat (glucosamine-6-phosphate [1]) [s⁻¹] | KM (glucosamine-6-phosphate [2]) [µM] | self-cleavage kobs at 640 uM GlcN6P (glucosamine-6-phosphate [3]) [s⁻¹] | self-cleavage kobs at 2500 uM GlcN6P (glucosamine-6-phosphate [4]) [s⁻¹] | self-cleavage kobs at 10000 uM GlcN6P (glucosamine-6-phosphate [5]) [s⁻¹] | self-cleavage kobs at 40 uM GlcN6P (glucosamine-6-phosphate [6]) [s⁻¹] | self-cleavage kobs at 160 uM GlcN6P (glucosamine-6-phosphate [7]) [s⁻¹]
1 | G44C U54G | 0.000124 ± 1.2e-05 | 1200 ± 330 | 4.75e-05 ± 1.2e-05 | 7.38e-05 ± 1.6e-05 | 0.000118 ± 1.9e-05 | – | –
2 | G43A C68A | 2.1e-05 ± 8.5e-06 | – | – | – | – | – | –
3 | G40U C71U | 0.00842 ± 0.0008 | 1490 ± 200 | 0.00248 ± 0.00024 | 0.00464 ± 0.0005 | 0.00794 ± 0.00065 | 0.000232 ± 1.6e-05 | 0.000742 ± 0.00011
4 | G44U A64G | 0.000112 ± 2.4e-05 | – | 9.74e-05 ± 4.6e-05 | 5.94e-05 ± 1.4e-05 | 9.64e-05 ± 1.3e-05 | – | –
5 | G41U U46A | 0.000481 ± 0.0001 | 2400 ± 860 | 9.28e-05 ± 1.2e-05 | 0.000324 ± 5.4e-05 | 0.000362 ± 5.7e-05 | – | 4.83e-05 ± 1.9e-05
6 | G41U C71G | 0.000121 ± 9e-06 | 1780 ± 490 | 2.64e-05 ± 1.1e-05 | 8.28e-05 ± 1.7e-05 | 0.000102 ± 9.5e-06 | – | –
7 | G41U C71A | 0.000252 ± 2.1e-05 | 604 ± 120 | 0.000128 ± 1.2e-05 | 0.000235 ± 2.8e-05 | 0.000219 ± 2.8e-05 | – | 5.27e-05 ± 9.4e-06
8 | A42U C67A | 0.00217 ± 0.00044 | 1400 ± 460 | 0.00067 ± 9.7e-05 | 0.00183 ± 0.00029 | 0.00183 ± 0.00019 | 7.75e-05 ± 9.8e-06 | 0.000151 ± 3.4e-05
9 | G41A A53U | 0.000693 ± 8.4e-05 | 562 ± 120 | 0.000358 ± 5.8e-05 | 0.00063 ± 0.00014 | 0.000656 ± 0.0001 | 5.42e-05 ± 9e-06 | 0.00012 ± 3.1e-05
10 | G41A A53C | 0.000213 ± 5.7e-05 | – | 8.67e-05 ± 2.5e-05 | 0.000101 ± 2.7e-05 | 0.000202 ± 3.9e-05 | – | –
11 | G44U C71U | 0.000114 ± 4.5e-05 | – | – | 9.61e-05 ± 1.4e-05 | 8.62e-05 ± 1.2e-05 | < 1e-05 | –
12 | A42U G43U C61A | 2.03e-05 ± 2.4e-06 | – | – | – | – | – | –
13 | G41U A53C | 0.000167 ± 4e-05 | – | 5.64e-05 ± 1.2e-05 | 7.23e-05 ± 9.5e-06 | 0.000139 ± 1.2e-05 | < 1e-05 | –
14 | G40C U45G | 0.000791 ± 0.00034 | – | 0.000646 ± 0.00013 | 0.000445 ± 7.5e-05 | 0.00114 ± 0.00025 | – | 9.8e-05 ± 1.7e-05
15 | G44A U56A | 0.00026 ± 6.2e-06 | 2650 ± 150 | 4.93e-05 ± 1.6e-05 | 0.00013 ± 2.6e-05 | 0.000205 ± 2.9e-05 | – | –
16 | G44C A53C | 6.93e-05 ± 2.5e-06 | 2650 ± 300 | – | 3.4e-05 ± 1e-05 | 5.46e-05 ± 9.3e-06 | – | –
17 | G40C A48U | 0.000238 ± 7.3e-05 | – | – | – | 5.01e-05 ± 8.4e-06 | < 1e-05 | < 1e-05
18 | G41C U55A | 8.46e-05 ± 5e-06 | 1280 ± 280 | – | 5.87e-05 ± 2e-05 | 7.36e-05 ± 2e-05 | < 1e-05 | –
19 | G41C U54C | 0.000229 ± 4e-05 | – | 0.000132 ± 2.8e-05 | 0.000162 ± 3.3e-05 | 0.000204 ± 2.4e-05 | – | –
20 | G43C C68U | 0.000722 ± 5.4e-05 | 1370 ± 190 | 0.000235 ± 2.8e-05 | 0.000572 ± 0.00012 | 0.000615 ± 6.7e-05 | – | 7.12e-05 ± 1.6e-05
21 | G40U U45A | 0.0022 ± 0.00057 | 1030 ± 420 | 0.00081 ± 0.0001 | 0.00235 ± 0.00023 | 0.00154 ± 0.00024 | 8.3e-05 ± 1.1e-05 | 0.000265 ± 4.2e-05
22 | G41A U47G | 0.00145 ± 0.00012 | 3540 ± 470 | 0.00021 ± 4e-05 | 0.000656 ± 0.00011 | 0.00104 ± 0.00017 | – | 6.46e-05 ± 2.1e-05
23 | A42C G66A | 0.000322 ± 2.8e-05 | 1090 ± 210 | 0.000125 ± 1.5e-05 | 0.000208 ± 2.9e-05 | 0.000305 ± 4.2e-05 | – | –
24 | G40U U46C | 0.00175 ± 0.00024 | 2420 ± 530 | 0.000365 ± 5e-05 | 0.000971 ± 0.00014 | 0.00137 ± 0.00016 | 4.23e-05 ± 1.1e-05 | 9.14e-05 ± 1.9e-05
25 | G40C U46C | 0.00119 ± 0.00012 | 1800 ± 280 | 0.000304 ± 6.3e-05 | 0.000729 ± 0.00014 | 0.000967 ± 0.00024 | – | 9.41e-05 ± 1.9e-05
26 | G41U U45G | 0.000293 ± 5.4e-05 | 909 ± 340 | 0.000129 ± 1.7e-05 | 0.000339 ± 9.1e-05 | 0.000243 ± 4.4e-05 | – | 3.13e-05 ± 1.4e-05
27 | G40C A42U | 3.99e-05 ± 4.6e-06 | – | – | 4.68e-05 ± 2.2e-05 | 3.64e-05 ± 1.1e-05 | – | –
28 | G41U G66A | 0.00293 ± 0.00055 | 1820 ± 560 | 0.000701 ± 0.00023 | 0.00141 ± 0.00028 | 0.00299 ± 0.00054 | 7.21e-05 ± 1.7e-05 | 0.000253 ± 7.9e-05
29 | G41U U55C | 0.000532 ± 8.1e-05 | 4870 ± 1100 | 6.02e-05 ± 7.7e-06 | 0.000181 ± 2e-05 | 0.000359 ± 5.4e-05 | – | 3.13e-05 ± 1.4e-05
